The values below come from paper PMC4047826.

In general, stoichiometry N refers to the number of molecules, sites or subunits per partner or assembly.

This test deals with Dead streptavidin subunit with a polyaspartate insertion in the 3/4 loop (Dd) (Streptomyces avidinii) (UniProt P22629). The test is described as follows: mixed refold, anion-exchange chromatography and SDS-PAGE without boiling; subunits refolded together from inclusion bodies into PBS; tetramers resolved on Mono-Q (20 mM Tris-HCl pH 8.0, 0-1 M NaCl gradient); peaks run on SDS-PAGE unboiled (tetramer) or boiled (subunit composition), Coomassie.

Consider “Dead streptavidin subunit with a polyaspartate insertion in the 3/4 loop (Dd) (from UniProt P22629 37-163) (domain or fragment)”, for which the stoichiometry N was determined as 4.
